Values joined by “and” are separate entries in the source; they are usually repeats but may differ in a detail not shown here. Equal entries are not always repeated. Where two headings read alike, the source gives them in different places. Where no end group is shown, it is not given here. The star is where a group is joined. Biotin = O=C1N[C@H]2[C@H](CS[C@H]2CCCCC(=O)*)N1
B1: biotinylated synthetic peptide of the COOH terminus of the Kv1.4 potassium channel (peptide)
peptide: Biotin-SGSGDKNNCSNAKAVETDV
B2: PDZ3 (A) domain of hDlg (domain or fragment, human, UniProt Q12959 457-558, looked up)
chain: DDEITREPRKVVLHRGSTGLGFNIVGGEDGEGIFISFILAGGPADLSGELRKGDRIISVNSVDLRAASHEQAAAALKNAGQAVTIVAQYRPEEYSRFEAKIH

Columns and labels:
[1] = molecular target: T1, GST-PDZ1+2+3 fusion protein of hDlg (human, UniProt Q12959 201-584); test: SPR
T1 sequence (Q12959 201-584): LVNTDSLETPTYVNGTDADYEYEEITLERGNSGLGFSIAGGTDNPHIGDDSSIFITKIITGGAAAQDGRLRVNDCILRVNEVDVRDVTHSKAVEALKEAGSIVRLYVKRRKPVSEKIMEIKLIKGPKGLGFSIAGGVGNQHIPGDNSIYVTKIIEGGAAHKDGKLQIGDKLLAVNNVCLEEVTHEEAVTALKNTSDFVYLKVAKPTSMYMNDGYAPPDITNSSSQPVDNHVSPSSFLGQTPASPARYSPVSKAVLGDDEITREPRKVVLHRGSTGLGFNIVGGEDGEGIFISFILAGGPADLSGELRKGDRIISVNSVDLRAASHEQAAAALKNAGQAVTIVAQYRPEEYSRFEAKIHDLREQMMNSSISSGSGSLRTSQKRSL

[2] = molecular target: PDZ1+2 (A) module of hDlg (human, UniProt Q12959 205-411); test: SPR
Chain of PDZ1+2 (A) module of hDlg (Q12959 205-411): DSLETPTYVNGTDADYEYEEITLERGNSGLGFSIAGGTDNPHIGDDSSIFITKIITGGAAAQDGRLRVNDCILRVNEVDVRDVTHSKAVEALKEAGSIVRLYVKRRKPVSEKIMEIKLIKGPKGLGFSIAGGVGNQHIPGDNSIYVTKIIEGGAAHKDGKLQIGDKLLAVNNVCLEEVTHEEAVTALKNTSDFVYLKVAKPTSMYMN

[3] = molecular target: T1, GST-PDZ1+2+3 fusion protein of hDlg; test: SPR; remark: listed apart in the source
SEC = molecular target: the molecule itself; test: SEC

| Binder | Kd [1] [nM] | koff [1] [s⁻¹] | kon [1] [M⁻¹ s⁻¹] | Kd [2] [nM] | koff [2] | kon [2] [M⁻¹ s⁻¹] | Kd [3] [nM] | koff [3] [s⁻¹] | kon [3] [M⁻¹ s⁻¹] | stoichiometry N (SEC) |
| --- | --- | --- | --- | --- | --- | --- | --- | --- | --- | --- |
| B1 | 11 | 0.002 | 180000 | 33 ± 5 | 0.0149 s⁻¹ and 0.0135 s⁻¹ | 413000 | 160 | 0.024 | 150000 |  |
| B2 |  |  |  |  |  |  |  |  |  | 2 |
